Experiment [1] deals with T1, Pfu Cas3 HD L139A/HEL V418A (Pyrococcus furiosus, UniProt Q8U336 1-237, limits assumed).
T1 construct: tags as for m8
T1 sequence 1: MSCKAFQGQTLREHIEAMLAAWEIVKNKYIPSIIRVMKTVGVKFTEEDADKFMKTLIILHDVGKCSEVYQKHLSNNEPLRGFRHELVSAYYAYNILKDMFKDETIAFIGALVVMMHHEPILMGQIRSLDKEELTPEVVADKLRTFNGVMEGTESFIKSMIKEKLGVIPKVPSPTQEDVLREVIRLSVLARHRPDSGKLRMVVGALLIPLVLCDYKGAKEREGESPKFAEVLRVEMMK
T1 sequence 2: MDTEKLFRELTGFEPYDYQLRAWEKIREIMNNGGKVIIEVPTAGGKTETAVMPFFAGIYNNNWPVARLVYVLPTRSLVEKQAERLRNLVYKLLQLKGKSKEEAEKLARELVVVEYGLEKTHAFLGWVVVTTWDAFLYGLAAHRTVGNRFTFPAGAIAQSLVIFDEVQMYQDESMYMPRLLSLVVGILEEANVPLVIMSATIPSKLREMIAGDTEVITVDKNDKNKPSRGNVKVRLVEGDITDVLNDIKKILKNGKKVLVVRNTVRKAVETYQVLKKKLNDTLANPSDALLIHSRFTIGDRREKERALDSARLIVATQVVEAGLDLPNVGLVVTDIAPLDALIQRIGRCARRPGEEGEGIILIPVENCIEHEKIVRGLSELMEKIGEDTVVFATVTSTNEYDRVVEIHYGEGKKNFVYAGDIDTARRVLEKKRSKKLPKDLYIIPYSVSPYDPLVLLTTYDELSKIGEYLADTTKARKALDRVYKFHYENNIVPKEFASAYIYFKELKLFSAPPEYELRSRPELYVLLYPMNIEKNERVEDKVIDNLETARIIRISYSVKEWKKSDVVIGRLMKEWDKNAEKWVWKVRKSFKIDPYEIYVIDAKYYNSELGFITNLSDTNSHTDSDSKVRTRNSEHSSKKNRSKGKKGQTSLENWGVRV
The experiment in a line: Strep-tag pull-down, SDS-PAGE. The text has this:
(§1) Binding of Pfu Cas3 effectively eliminates the severe domain movements in Cas8a NTD, and rigidifies the rest of the inner belly subunits in place (FIG. 3A-B). The lockdown effect is achieved through an extensive Cas3-Cas8a interface that spans across the NTD and CTD of Cas8a, which prevents the hinge motion in between the two domains. […] To validate structural observations, we mutagenized three conserved interface residues on Cas3 individually and in combination, two from the HD nuclease (V187E, L139A) and one from the helicase subunit (V418A). In Strep-tag pull-down experiments, each mutation reduced the affinity between Cas3 and Cascade, albeit to various extents. In particular, Cas3 HD V187E and HD L139A/HEL V418A completely disrupted Cas3 interaction with Cascade (FIG. 19). Thus, in embodiments, any Cas3 sequence that is at least 85% similar to a Pfu Cas3 may retain the described wild type amino acids.
(§2) 15 μg of strep-tagged Pfu Cascade and 15 μg of untagged Pfu Cas3 complex were mixed and incubated with 10 μL of strep resin at 4° C. for 30 min in a binding buffer (50 mM HEPES pH7.5, 10% glycerol, 300 mM NaCl), in a total assay volume of 50 μL. […]

In the next experiment the target is T2, Pfu Cas3 HD V187E (Pyrococcus furiosus, UniProt Q8U336 1-237, limits assumed).
T2 construct: The pull-down method speaks of an 'untagged Pfu Cas3 complex'; also called Cas3 V187E
T2 sequence 1: T1 sequence 1 with A139L, V187E
T2 sequence 2: T1 sequence 2 with A418V
The experiment in a line: Strep-tag pull-down, SDS-PAGE.
Excerpt: as §1, §2

Substitutions are numbered along the chain they refer to.

B1: Pfu Cascade (other)
chain 1: not shown
chain 2: MDILLVCLRFPFFSVAKRSYQVRTSFLLPPPSALKGALAKGLILLKPEKYASSSLDEAALKAIKEIESKLVDIKAVSVAPLSPLIRNAFLLKRLRNLESGSNAEKSDAMRREYTFTRELLVAYIFKNLTQEEKNLYLKAAMLIDVIGDTESLATPVWASFVKPEDKKAPLAFSAPYTEIYSLLSSKIQAKGKIRMYIEKMRVSPEYSKTKGPQEEIFYLPIEERRYKRIVYYARTIYPPEVEKALTVDGEVLGIWIPKNSSESGSHHHHHHH
chain 3: MMYVRISGRIRLNAHSLNAQGGGGTNYIEITKTKVTVRTENGWTVVEVPAITGNMLKHWHFVGFVDYFKTTPYGVNLTERALRYNGTRFGQGETTATKANGATVQLNDEATIIKELADADVHGFLAPKTGRRRVSLVKASFILPTEDFIKEVEGERLITAIKHNRVDVDEKGAIGSSKEGTAQMLFSREYATGLYGFSIVLDLGLVGIPQGLPVKFEENQPRPNIVIDPNERKARIESALKALIPMLSGYIGANLARSFPVFKVEELVAIASEGPIPALVHGFYEDYIEANRSIIKNARALGFNIEVFTYNVDLGEDIEATKVSSVEELVANLVKMVGGKE
chain 4: MGGWIRNIGRYLSYLVDDTFEEYAYDVVDGIAKARTQEELLEGVYKALRLAPKLKKKAESKGCPPPRIPSPEDIEALEEKVEQLSNPKDLRKLAVSLALWAFASWNNCPKKGKGTEGGVE
notes: Ribonucleoprotein complex that also holds the chimeric crRNA (Pfu 5'-handle, E. coli 3'-handle); also called I-A Pfu Cascade; apo Pfu Cascade
As to B1, the binding result (in experiment [1]; with Pfu Cas3 HD V187E) was “no binding” throughout.
